For assay [1], the target named is T1, hIL-12Rβ1_(D3-D5) (domains 3 to 5 of human IL-12 receptor β1) (human, UniProt P42701). Description: crystal structure.
Assay [2] concerns the target T1, hIL-12Rβ1_(D3-D5) (domains 3 to 5 of …). The experiment in a line: crystal structure. The source holds these as a separate data set.
The target in assay [3] is T2, biotinylated mIL-12Rβ2_(D1-D6)-Casp3-AviTag-His6 (mouse, UniProt P97378 24-637, biotin on the AviTag (in vitro biotinylation with BirA)).
T2 sequence (looked up): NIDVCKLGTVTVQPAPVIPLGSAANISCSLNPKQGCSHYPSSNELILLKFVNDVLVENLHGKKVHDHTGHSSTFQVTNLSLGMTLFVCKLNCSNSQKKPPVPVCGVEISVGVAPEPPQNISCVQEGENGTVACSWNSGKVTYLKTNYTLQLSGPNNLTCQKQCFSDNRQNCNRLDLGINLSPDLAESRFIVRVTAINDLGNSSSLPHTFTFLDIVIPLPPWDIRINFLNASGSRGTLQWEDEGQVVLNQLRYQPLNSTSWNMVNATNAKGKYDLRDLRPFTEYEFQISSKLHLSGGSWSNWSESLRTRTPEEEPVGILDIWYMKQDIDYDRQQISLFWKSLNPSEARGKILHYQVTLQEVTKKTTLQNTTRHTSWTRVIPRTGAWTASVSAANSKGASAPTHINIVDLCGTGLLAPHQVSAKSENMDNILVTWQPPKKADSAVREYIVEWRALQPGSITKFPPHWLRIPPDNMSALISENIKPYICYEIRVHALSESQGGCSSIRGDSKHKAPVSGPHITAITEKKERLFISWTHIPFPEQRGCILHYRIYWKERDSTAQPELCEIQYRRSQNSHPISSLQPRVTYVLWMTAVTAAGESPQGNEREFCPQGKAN
The experiment in a line: BLI. (In general: BLI is a label-free optical method that tracks binding on a fibre tip over time.)

Where two headings read alike, the source gives them in different places.

B1: Fab4_(CrystalKappa) (Crystal Kappa form of Fab4) (Fab, V domains shown)
VH: QVQLVESGGGVVQPGRSLRLSCAASGFTFTSYGMSWVRQAPGKGLEWVAGISYDASDTEYADSVKGRFTISRDNSKNTLYLQMNSLRAEDTAVYYCARSPDYIIDYGFDYWGRGTLVTVSS
VL: AIQMTQSPSSLSASVGDRVTITCRASQGISSDLAWYQQKPGKAPKLLIYDASSLQSGVPSRFSGSGSGTDFTLTISSLQPEDFATYYCQQYWWYPFTFGQGTKVEIK
Turning to B1, the binding result in assay [1] is listed as “binds”.

B2: Fab4 (wild-type; antigen-binding portion of an antagonistic anti-IL-12Rβ1 antibody) (Fab, V domains shown)
VH: QVQLVESGGGVVQPGRSLRLSCAASGFTFTSYGMSWVRQAPGKGLEWVAGISYDASDTEYADSVKGRFTISRDNSKNTLYLQMNSLRAEDTAVYYCARSPDYIIDYGFDYWGRGTLVTVSS
VL: AIQMTQSPSSLSASVGDRVTITCRASQGISSDLAWYQQKPGKAPKLLIYDASSLQSGVPSRFSGSGSGTDFTLTISSLQPEDFATYYCQQYWWYPFTFGQGTKVEIK
As to B2, the binding result in assay [2] is recorded as “binds”.

B3: mIL-12 (mIL-12a-AviTag-His6 and untagged mIL-12b), analyte in BLI (complex, mouse)
chain 1: RVIPVSGPARCLSQSRNLLKTTDDMVKTAREKLKHYSCTAEDIDHEDITRDQTSTLKTCLPLELHKNESCLATRETSSTTRGSCLPPQKTSLMMTLCLGSIYEDLKMYQTEFQAINAALQNHNHQQIILDKGMLVAIDELMQSLNHNGETLRQKPPVGEADPYRVKMKLCILLHAFSTRVVTINRVMGYLSSA
chain 2: MWELEKDVYVVEVDWTPDAPGETVNLTCDTPEEDDITWTSDQRHGVIGSGKTLTITVKEFLDAGQYTCHKGGETLSHSHLLLHKKENGIWSTEILKNFKNKTFLKCEAPNYSGRFTCSWLVQRNMDLKFNIKSSSSSPDSRAVTCGMASLSAEKVTLDQRDYEKYSVSCQEDVTCPTAEETLPIELALEARQQNKYENYSTSFFIRDIIKPDPPKNLQMKPLKNSQVEVSWEYPDSWSTPHSYFSLKFFVRIQRKKEKMKETEEGCNQKGAFLVEKTSTEVQCKGGNVCVQAQDRYYNSSCSKWACVPCRVRS
Regarding B3, in assay [3], the binding result was “binds”.

The values above are taken from paper doi:10.1101/2023.03.13.532366 (bioRxiv, 2023).
